The record followed here is US20200165324A1.

For assay [1], the target named is Env of the 117-virus panel (117 cross-clade virus panel). Nature of the assay: cell-based or functional assay.
The target in assay [2] is Env of the 12-virus indicator panel. Nature of the assay: cell-based or functional assay.
Assay [3] deals with stabilized BG505 SOSIP construct MD39 (HIV isolate BG505). Nature of the assay: competition ELISA on MD39 vs PG9.
For assay [4] the target is unchanged. Kind of assay: competition ELISA on MD39 vs PGT128.
For assay [5] the target is unchanged. Kind of assay: competition ELISA on MD39 vs CH103. Background: In an ELISA, binding on a coated surface is turned into a signal by an enzyme label.
For assay [6] the target is unchanged. Nature of the assay: competition ELISA on MD39 vs 12A12.
Assay [7] shares this target. Kind of assay: competition ELISA on MD39 vs 35022.
Assay [8] shares this target. Kind of assay: competition ELISA on MD39 vs VRC01.
For assay [9] the target is unchanged. Kind of assay: competition ELISA on MD39 vs 3BNC117.
The target is the same in assay [10]. Nature of the assay: competition ELISA on MD39 vs PGT121.
Assay [11] has the same target. Kind of assay: competition ELISA on MD39 vs b12.
For assay [12] the target is unchanged. Nature of the assay: competition ELISA on MD39 vs Self.
For assay [13] the target is unchanged. Nature of the assay: competition ELISA on MD39 vs PGT151.
The target is the same in assay [14]. Kind of assay: competition ELISA on MD39 vs PGDM1400.
The target of assay [15] is gp120 (isolate 92BR020) (HIV-1 isolate 92BR020). Nature of the assay: ELISA on gp120 (isolate 92BR020), buffer pH 6.
For assay [16] the target is unchanged. Kind of assay: ELISA on gp120 (isolate 92BR020), buffer pH 5.5.

B1: NC-Cow1 (antibody)
VH: QVQLRESGPSLMKPSQTLSLTCTVSGSSLNDKSVGWVRQAPGKALQWLGSVDTSGNTDYNPGLKSRLSITKDNSKSRISLTVTGMTTEDSATYYCITAHQKTNKKECPEDYTYNPRCPQQYGWSDCDCMGDRFGGYCRQDGCSNYIHRSTYEWYVSAWGQGLLVTVSS
VL: SYELTQPSSVSGSLGQRVSVTCSGSSSNVGNGYVSWYQLIPGSAPRTIIYGDTSRASGVPERFSGSRSGNTATLTISSLQAEDEADFFCASPDDSSSNAVFGSGTTLTVL
B1: the median IC50 of neutralization on the 117-virus panel in assay [1] was 0.028 µg/mL. In addition, the neutralization breadth on the 117-virus panel (pseudovirus, TZM-bl cells) in [1] amounted to 72%. Moreover, the median IC50 of neutralization on the 12-virus indicator panel in assay [2] was 0.007 µg/mL. In addition, the neutralization breadth on the 12-virus indicator panel in assay [2] worked out at 100%. Besides, the IC50, pseudovirus neutralization was 1.24 µg/mL in the assay with JR-CSF P369A; 0.011 µg/mL in the assay with BG505 N276A; > 50 µg/mL in the assay with JR-CSF V372A; 0.009 µg/mL with BG505 D474A; 0.744 µg/mL with JR-CSF D474A; 0.014 µg/mL in the assay with BG505 N262A. The IC50, pseudovirus neutralization is 1.02 µg/mL with JR-CSF D279A, 2.52 µg/mL with JR-CSF M373A and > 50 µg/mL with JR-CSF K282A.

B2: NC-Cow4 (antibody)
VH: KVQLRESGPSLVKPSQTLSLTCMVSGFSLNDEAVGWVRQAPGKALEWLGSIDAGGSTGYNPGLKSRLSISKDNSKNQVSLSVSSVTTEDSATYYCGTVHQRTQPKQTCPNGYSDDSALRYYSRCSDRDCWRCTGTTYYDTCQCSSYTYIHTYELYVDAWGQGLLVTVSS
VL: QAVLTQPSSVSGSLGQRVSITCSGSSSNVGNGYVSWYQLIPGSAPRTLIYGDTSRASGVPDRFSGSRSGNTATLTISSLQAEDEADYFCASPEDSSSNAVFGSGTTLTVL
As to B2, the competition value in assay [3] came out at 7; in assay [4], 35; in assay [5], 13; in assay [6], 95; in [7], 18; in [8] it was 94. The competition value in assay [9] is 95; in assay [10] it was -11; in [11], 29; in [12] it was 84; in assay [13] it was 20; in assay [14] it was 22.

B3: NC-Cow2 (antibody)
VH: KVQLRESGPSLVKPSQTLSLTCMVSGSSLSDKAVGWVRQAPGKALEWLGIISAGGNRGYNSGLRSRLTISKDNSKNEVSLRVRSVTTEDSATYFCGTVHQKTQRKPICPDGYSDDSTLRYYSRCSDRDCWRCTGTTYYDTCQCGTYTWIDTHELHVDAWGQGLLVTVSS
VL: QAVLNQPSSVSGSLGQRVSITCSGSSSNVGNGYVSWYQLIPGSAPRTLIYGDTSRASGVPDRFSGSRSGNTATLTISSLQAEDEADYFCASAEDSSSNAVFGSGTTLTVL
As to B3, the competition value in [3] was determined as 4; in [4], 57; in assay [5], 11; in [6], 94; in [7], 11; in assay [8], 93. The competition value was 93 in [9]; 27 in assay [10]; 0 in [11]; 91 in assay [12]; 11 in assay [13]; 18 in assay [14].

B4: NC-Cow7 (antibody)
VH: KVQLRESGPSLVKPFETLSLTCTGSGFSLSDKAAGWVRQAPGKAPEWLGSIDTGGNTGYNPGLKYRLSITKDNSKSQVSLSVSSMTSEDSATYYCTTVHQKAYKKVCPDDYSSNPDCVRLYGWSHCDCMRDSFGGWCRADGCSSTVEIGPYEWYVNAWGQGLLVTVSS
VL: QAVLTQPSSVSGSLGQRVSITCSGSSSNVGNGYVSWYQLIPGSAPRSLIYGDTSRASGVPDRFSGSRSGNTATLTISSLQAEDEADYFCASPEDSSSNGVFGSGTTLTVL
Take B4: the competition value in assay [3] turned out to be 8; in [4], 31; in assay [5] it was 35; in assay [6] it was 92; in [7] it was 5; in [8], 87. For the same molecule, the competition value in assay [9] worked out at 90; in assay [10], 23; in assay [11] it was 9; in assay [12], 90; in [13], 20; in assay [14], 12.

B5: NC-Cow5 (antibody)
VH: QVQLQESGPSLVKPSQTLSLTCMVSGFSLNDKAVGWVRQAPGKALEWLGSIDAGGSTGYNPGLKSRLSISKDNSKNQVSLSVSSVTTEDSATYYCGTVHQRTQPKQTCPNGYSDDSALRYYSRCSDRDCWRCTGTTYYDTCQCSSYTYIHTYELYVDAWGQGLLVTVSS
VL: QDVLTQPSSVSGSLGQRVSITCSGSSSNVGNGYVSWYQLIPGSAPRTLIYGDTSRASGVPDRFSGSRSGNTATLTISSLQAEDEADYFCASPEDSSSNAVFGSGTTLTVL
Regarding B5, the competition value in [3] was found to be 21; in assay [4], 71; in assay [5], 38; in assay [6] it was 95; in assay [7], 14; in assay [8], 95. Moreover, the competition value amounted to 94 in assay [9]; 21 in [10]; 23 in [11]; 37 in [12]; 2 in assay [13]; 3 in [14].

B6: germline PG9 HC (NC-Cow1 VH CDR3) + mature PG9 LC (antibody)
VH: QVQLVESGGGVVQPGRSLRLSCAASGFTFSSYGMHWVRQAPGKGLEWVAVISYDGSNKYYADSVKGRFTISRDNSKNTLYLQMNSLRAEDTAVYYCITAHQKTNKKECPEDYTYNPRCPQQYGWSDCDCMGDRFGGYCRQDGCSNYIHRSTYEWYVSAWGKGTTVTVSS
VL: QSALTQPASVSGSPGQSITISCNGTSNDVGGYESVSWYQQHPGKAPKVVIYDVSKRPSGVSNRFSGSKSGNTASLTISGLQAEDEGDYYCKSLTSTRRRVFGTGTKLTVL
For B6, in assay [2], the median IC50 of neutralization on the 12-virus indicator panel was 0.054 µg/mL and the neutralization breadth on the 12-virus indicator panel amounted to 88%.

B7: PGV04 (antibody, from a related filing, V domains shown)
VH: QVQLVQSGSGVKKPGASVRVSCWTSEDIFERTELIHWVRQAPGQGLEWIGWVKTVTGAVNFGSPDFRQRVSLTRDRDLFTAHMDIRGLTQGDTATYFCARQKFYTGGQGWYFDLWGRGTLIVVSS
VL: EIVLTQSPGTLSLSPGETASLSCTAASYGHMTWYQKKPGQPPKLLIFATSKRASGIPDRFSGSQFGKQYTLTITRMEPEDFARYYCQQLEFFGQGTRLEIR
As usually defined, the EC50 (read off the curve) is the concentration at which the effect is half-maximal. Low readings indicate a more potent agent, high ones a less potent agent. Regarding B7, the EC50 (read off the curve) in assay [15] and in assay [16] was 0.2 µg/mL in each case.
